Data reported in US20140303084A1 (Biogen, published 2014).
Bridge positions count the residues as written; N and C are the ends. Square brackets hold non-standard residues; d marks the D form. Primed or numbered codes have the meaning given here. Side chains are listed from the residue outwards. Ends that are not written are not given here. * marks the point of attachment. Biotin = O=C1N[C@H]2[C@H](CS[C@H]2CCCCC(=O)*)N1; PEG2(3) = PEG2 spacer carrying biotin on Lys; PEG2″ = not defined here; PEG = not defined here; PEG2(4) = PEG2 spacer; PEG4′ = PEG4 spacer

B1: RRAPGKLTCLAsYCWLFWTGIA (peptide)
peptide: RRAPGKLTCLA[dS]YCWLFWTGIA
modifications: not fully specified (bridges); printed as RRAPGKLTCLAsYCWLFWTGIA; cysteine pairing not given here
B2: RRAPGKLTCLASyCWLFWTGIA (peptide)
peptide: RRAPGKLTCLAS[dY]CWLFWTGIA
modifications: not fully specified (bridges); printed as RRAPGKLTCLASyCWLFWTGIA; cysteine pairing not given here
B3: RRAPGKLTCLASYcWLFWTGIA (peptide)
peptide: RRAPGKLTCLASY[dC]WLFWTGIA
modifications: not fully specified (C-terminus, bridges); printed as RRAPGKLTCLASYcWLFWTGIA; cysteine pairing not given here
B4: RRAPGKLTCLASYCWlFWTGIA (peptide)
peptide: RRAPGKLTCLASYCW[dL]FWTGIA
modifications: not fully specified (bridges); printed as RRAPGKLTCLASYCWlFWTGIA; cysteine pairing not given here
B5: RRAPGKLTCLASYCWLfWTGIA (peptide)
peptide: RRAPGKLTCLASYCWL[dF]WTGIA
modifications: not fully specified (C-terminus, bridges); printed as RRAPGKLTCLASYCWLfWTGIA; cysteine pairing not given here
B6: RRAPGKLTCLASYCWLFWtGIA (peptide)
peptide: RRAPGKLTCLASYCWLFW[dT]GIA
modifications: not fully specified (C-terminus, bridges); printed as RRAPGKLTCLASYCWLFWtGIA; cysteine pairing not given here
B7: RRAPGKLTCLASYCWLFWTGIa (peptide)
peptide: RRAPGKLTCLASYCWLFWTGI[dA]
modifications: not fully specified (C-terminus, bridges); printed as RRAPGKLTCLASYCWLFWTGIa; cysteine pairing not given here
B8: PEG4-RRAPGKLTCLASYCWLFWTGIA (peptide)
peptide: [PEG4′]RRAPGKLTCLASYCWLFWTGIA
modifications: disulfide 10-15 (inferred); not fully specified (C-terminus); printed as PEG4-RRAPGKLTCLASYCWLFWTGIA
B9: Glu(Biotinyl-PEG)-RAPGKLTCLASYCWLFWTGIA (peptide)
peptide: E([PEG-Biotin])RAPGKLTCLASYCWLFWTGIA
modifications: not fully specified; printed as Glu(Biotinyl-PEG)-RAPGKLTCLASYCWLFWTGIA; cysteine pairing not given here; reading uncertain
B10: RK(PEG2-Biotin)APGKLTCLASYCWLFWTGIA (peptide)
peptide: RK([PEG2(3)-Biotin])APGKLTCLASYCWLFWTGIA
modifications: not fully specified (C-terminus); printed as RK(PEG2-Biotin)APGKLTCLASYCWLFWTGIA; cysteine pairing not given here
B11: RRK(PEG2-Biotin)PGKLTCLASYCWLFWTGIA (peptide)
peptide: RRK([PEG2″-Biotin])PGKLTCLASYCWLFWTGIA
modifications: not fully specified; printed as RRK(PEG2-Biotin)PGKLTCLASYCWLFWTGIA; cysteine pairing not given here
B12: RRAK(PEG2-Biotin)GKLTCLASYCWLFWTGIA (peptide)
peptide: RRAK([PEG2(4)-Biotin])GKLTCLASYCWLFWTGIA
modifications: not fully specified (C-terminus); printed as RRAK(PEG2-Biotin)GKLTCLASYCWLFWTGIA; cysteine pairing not given here
B13: RRAPGK(PEG2-Biotin)LTCLASYCWLFWTGIA (peptide)
peptide: RRAPGK([PEG2(3)-Biotin])LTCLASYCWLFWTGIA
modifications: not fully specified (bridges); printed as RRAPGK(PEG2-Biotin)LTCLASYCWLFWTGIA; cysteine pairing not given here
B14: RRAPGKLTCLASK(PEG2-Biotin)CWLFWTGIA (peptide)
peptide: RRAPGKLTCLASK([PEG2″-Biotin])CWLFWTGIA
modifications: not fully specified; printed as RRAPGKLTCLASK(PEG2-Biotin)CWLFWTGIA; cysteine pairing not given here
B15: RRAPGKLTCLASYCK(PEG2-Biotin)LFWTGIA (peptide)
peptide: RRAPGKLTCLASYCK([PEG2(3)-Biotin])LFWTGIA
modifications: not fully specified (C-terminus); printed as RRAPGKLTCLASYCK(PEG2-Biotin)LFWTGIA; cysteine pairing not given here
B16: RRAPGKLTCLASYCWK(PEG2-Biotin)FWTGIA (peptide)
peptide: RRAPGKLTCLASYCWK([PEG2(3)-Biotin])FWTGIA
modifications: not fully specified (C-terminus); printed as RRAPGKLTCLASYCWK(PEG2-Biotin)FWTGIA; cysteine pairing not given here
B17: RRAPGKLTCLASYCWLK(PEG2-Biotin)WTGIA (peptide)
peptide: RRAPGKLTCLASYCWLK([PEG2″-Biotin])WTGIA
modifications: not fully specified; printed as RRAPGKLTCLASYCWLK(PEG2-Biotin)WTGIA; cysteine pairing not given here
B18: RRAPGKLTCLASYCWLFWK(PEG2-Biotin)GIA (peptide)
peptide: RRAPGKLTCLASYCWLFWK([PEG2″-Biotin])GIA
modifications: not fully specified; printed as RRAPGKLTCLASYCWLFWK(PEG2-Biotin)GIA; cysteine pairing not given here
B19: RRAPGKLTCLASYCWLFWTGK(PEG2-Biotin)A (peptide)
peptide: RRAPGKLTCLASYCWLFWTGK([PEG2(3)-Biotin])A
modifications: not fully specified (C-terminus); printed as RRAPGKLTCLASYCWLFWTGK(PEG2-Biotin)A; cysteine pairing not given here
B20: RRAPGKLTCLASYCWLFWTGIK(PEG2-Biotin) (peptide)
peptide: RRAPGKLTCLASYCWLFWTGIK([PEG2(3)-Biotin])
modifications: not fully specified (C-terminus); printed as RRAPGKLTCLASYCWLFWTGIK(PEG2-Biotin); cysteine pairing not given here

Each binder was assayed against human Factor IXa (human, UniProt P00740 47-191; P00740 227-461) (assay: cell-based or functional assay).

| Binder | EC50 [µM], FXa generation assay [µM] | EC50 [µM], FXa generation assay with hFIXa [µM] |
| --- | --- | --- |
| B1 | < 0.5 | – |
| B2 | < 0.5 | – |
| B3 | > 1 | – |
| B4 | > 1 | – |
| B5 | < 0.5 | – |
| B6 | < 0.5 | – |
| B7 | > 1 | – |
| CRRAPGKLQCLASYCWLFWTGIAC | > 1 | – |
| CGGSGGRRAPGKLQCLASYCWLFWTGIAC | > 1 | – |
| CRRAPGKLQCLASYCWLFWTGIAGGSGGC | > 1 | – |
| CGGSGGRRAPGKLQCLASYCWLFWTGIAGGSGGC | > 1 | – |
| SKQGRPISPD[dR]RAAGKLTCLASYCWLFWTGIA-NH2 (cysteine pairing not given here) [compound 24] | – | < 0.5 |
| B8 | < 0.5 | – |
| B9 | > 4 | – |
| B10 | < 0.5 | – |
| B11 | < 0.5 | – |
| B12 | > 1 | – |
| B13 | < 0.5 | – |
| RRAPGKK([PEG2(3)-Biotin])TCLASYCWLFWTGIA (cysteine pairing not given here) [RRAPGKK(PEG2-Biotin)TCLASYCWLFWTGIA] | > 5 | – |

| Binder | EC50 [µM], FXa generation assay [µM] | EC50 [µM], FXa generation assay with hFIXa [µM] |
| --- | --- | --- |
| RRAPGKLTCK([PEG2(3)-Biotin])ASYCWLFWTGIA (cysteine pairing not given here) [RRAPGKLTCK(PEG2-Biotin)ASYCWLFWTGIA] | < 0.5 | – |
| RRAPGKLTCLK([PEG2(3)-Biotin])SYCWLFWTGIA (cysteine pairing not given here) [RRAPGKLTCLK(PEG2-Biotin)SYCWLFWTGIA] | < 0.5 | – |
| B14 | < 0.5 | – |
| B15 | < 0.5 | – |
| B16 | > 1 | – |
| B17 | > 1 | – |
| B18 | < 0.5 | – |
| PLKWTASGCRWLGCIQLARFAY-NH2 (cysteine pairing not given here) [compound B] | – | > 1 |
| B19 | < 0.5 | – |
| B20 | < 0.5 | – |
| RRAPGKLTCLASYCWLFWTGIA (not fully specified; C-terminal PEG4) [RRAPGKLTCLASYCWLFWTGIA-PEG4] | < 0.5 | – |
| QWQIAGQVLKRRAPAKLTCLASYCWLFWTGIA [QWQIAGQVLKRRAPA KLTCLASYCWLFWTGIA] | < 0.5 | – |
| LQLSYGEQRQSRAPGKLTCLASYCWLFWTGIA [LQLSYGEQRQ SRAPG KLTCLASYCWLFWTGIA] | < 0.5 | – |
| TSGPFGFGGSSRAQGKLTCLASYCWLFWTGIA [TSGPFGFGGS SRAQG KLTCLASYCWLFWTGIA] | > 1 | – |
| HLFGADWLGARTAPGKLTCLASYCWLFWTGIA [HLFGADWLGA RTAPG KLTCLASYCWLFWTGIA] | > 1 | – |
| QRAGRVARLHRRAPNKLTCLASYCWLFWTGIA [QRAGRVARLH RRAPN KLTCLASYCWLFWTGIA] | > 1 | – |
| WRAGLDESQRDRAPGKLTCLASYCWLFWTGIA [WRAGLDESQR DRAPG KLTCLASYCWLFWTGIA] | < 0.5 | – |
| PSGWAGWAPGRREPGKLTCLASYCWLFWTGIA [PSGWAGWAPG RREPG KLTCLASYCWLFWTGIA] | > 1 | – |
| AVDSLPLYGARSAPSKLTCLASYCWLFWTGIA (not fully specified; cysteine pairing not given here) [AVDSLPLYGA RSAPS KLTCLASYCWLFWTGIA] | < 0.5 | – |
